Ten molecules from patent US20120316071A1 (published 2012) can be followed below.

To fix the notation:
B1: Fab VH1-46_IGHD6-6*01_IGHJ1*01 S102A/S103P/S104F/H111F (APFF) & L6_IGKJ1*01 S31K (Fab, V domains shown)
VH: QVQLVQSGAEVKKPGASVKVSCKASGYTFTSYYMHWVRQAPGQGLEWMGIINPSGGSTSYAQKFQGRVTMTRDTSTSTVYMELSSLRSEDTAVYYCAREEYAPFSAEYFQFWGQGTLVTVSS
VL: EIVLTQSPATLSLSPGERATLSCRASQSVSKYLAWYQQKPGQAPRLLIYDASNRATGIPARFSGSGSGTDFTLTISSLEPEDFAVYYCQQRSNWPPWTFGQGTKVEIKR
notes: Fab made in E. coli; The constant parts (CH1 with His6 and Flag tags from plasmid A, kappa CL from plasmid C) are not added here; also called APFF & S31K
B2: Fab VH1-46_IGHD6-6*01_IGHJ1*01 S102A/S103P/S104F/H111F (APFF) & L6_IGKJ1*01 S30G (Fab, V domains shown)
VH: QVQLVQSGAEVKKPGASVKVSCKASGYTFTSYYMHWVRQAPGQGLEWMGIINPSGGSTSYAQKFQGRVTMTRDTSTSTVYMELSSLRSEDTAVYYCAREEYAPFSAEYFQFWGQGTLVTVSS
VL: EIVLTQSPATLSLSPGERATLSCRASQSVGSYLAWYQQKPGQAPRLLIYDASNRATGIPARFSGSGSGTDFTLTISSLEPEDFAVYYCQQRSNWPPWTFGQGTKVEIKR
notes: Fab made in E. coli; The constant parts (CH1 with His6 and Flag tags from plasmid A, kappa CL from plasmid C) are not added here; also called APFF & S30G
B3: Fab VH1-46_IGHD6-6*01_IGHJ1*01 S102A/S103P/S104F/H111F (APFF) & L6_IGKJ1*01 S31H (Fab, V domains shown)
VH: QVQLVQSGAEVKKPGASVKVSCKASGYTFTSYYMHWVRQAPGQGLEWMGIINPSGGSTSYAQKFQGRVTMTRDTSTSTVYMELSSLRSEDTAVYYCAREEYAPFSAEYFQFWGQGTLVTVSS
VL: EIVLTQSPATLSLSPGERATLSCRASQSVSHYLAWYQQKPGQAPRLLIYDASNRATGIPARFSGSGSGTDFTLTISSLEPEDFAVYYCQQRSNWPPWTFGQGTKVEIKR
notes: Fab made in E. coli; The constant parts (CH1 with His6 and Flag tags from plasmid A, kappa CL from plasmid C) are not added here; also called APFF & S31H
B4: Fab VH1-46_IGHD6-6*01_IGHJ1*01 S102A/S103P/S104F/H111F (APFF) & L6_IGKJ1*01 S31D (Fab, V domains shown)
VH: QVQLVQSGAEVKKPGASVKVSCKASGYTFTSYYMHWVRQAPGQGLEWMGIINPSGGSTSYAQKFQGRVTMTRDTSTSTVYMELSSLRSEDTAVYYCAREEYAPFSAEYFQFWGQGTLVTVSS
VL: EIVLTQSPATLSLSPGERATLSCRASQSVSDYLAWYQQKPGQAPRLLIYDASNRATGIPARFSGSGSGTDFTLTISSLEPEDFAVYYCQQRSNWPPWTFGQGTKVEIKR
notes: Fab made in E. coli; The constant parts (CH1 with His6 and Flag tags from plasmid A, kappa CL from plasmid C) are not added here; also called APFF & S31D
B5: Fab VH1-46_IGHD6-6*01_IGHJ1*01 S102A/S103P/S104F/H111F (APFF) & L6_IGKJ1*01 S30T (Fab, V domains shown)
VH: QVQLVQSGAEVKKPGASVKVSCKASGYTFTSYYMHWVRQAPGQGLEWMGIINPSGGSTSYAQKFQGRVTMTRDTSTSTVYMELSSLRSEDTAVYYCAREEYAPFSAEYFQFWGQGTLVTVSS
VL: EIVLTQSPATLSLSPGERATLSCRASQSVTSYLAWYQQKPGQAPRLLIYDASNRATGIPARFSGSGSGTDFTLTISSLEPEDFAVYYCQQRSNWPPWTFGQGTKVEIKR
notes: Fab made in E. coli; The constant parts (CH1 with His6 and Flag tags from plasmid A, kappa CL from plasmid C) are not added here; also called APFF & S30T
B6: Fab VH1-46_IGHD6-6*01_IGHJ1*01 S102A/S103P/S104F/H111F (APFF) & L6_IGKJ1*01 S31P (Fab, V domains shown)
VH: QVQLVQSGAEVKKPGASVKVSCKASGYTFTSYYMHWVRQAPGQGLEWMGIINPSGGSTSYAQKFQGRVTMTRDTSTSTVYMELSSLRSEDTAVYYCAREEYAPFSAEYFQFWGQGTLVTVSS
VL: EIVLTQSPATLSLSPGERATLSCRASQSVSPYLAWYQQKPGQAPRLLIYDASNRATGIPARFSGSGSGTDFTLTISSLEPEDFAVYYCQQRSNWPPWTFGQGTKVEIKR
notes: Fab made in E. coli; The constant parts (CH1 with His6 and Flag tags from plasmid A, kappa CL from plasmid C) are not added here; also called APFF & S31P
B7: Fab VH1-46_IGHD6-6*01_IGHJ1*01 S102A/S103P/S104F/H111F (APFF) & L6_IGKJ1*01 S31A (Fab, V domains shown)
VH: QVQLVQSGAEVKKPGASVKVSCKASGYTFTSYYMHWVRQAPGQGLEWMGIINPSGGSTSYAQKFQGRVTMTRDTSTSTVYMELSSLRSEDTAVYYCAREEYAPFSAEYFQFWGQGTLVTVSS
VL: EIVLTQSPATLSLSPGERATLSCRASQSVSAYLAWYQQKPGQAPRLLIYDASNRATGIPARFSGSGSGTDFTLTISSLEPEDFAVYYCQQRSNWPPWTFGQGTKVEIKR
notes: Fab made in E. coli; The constant parts (CH1 with His6 and Flag tags from plasmid A, kappa CL from plasmid C) are not added here; also called APFF & S31A
B8: Fab VH1-46_IGHD6-6*01_IGHJ1*01 S102A/S103P/S104F/H111F (APFF) & L6_IGKJ1*01 S30P (Fab, V domains shown)
VH: QVQLVQSGAEVKKPGASVKVSCKASGYTFTSYYMHWVRQAPGQGLEWMGIINPSGGSTSYAQKFQGRVTMTRDTSTSTVYMELSSLRSEDTAVYYCAREEYAPFSAEYFQFWGQGTLVTVSS
VL: EIVLTQSPATLSLSPGERATLSCRASQSVPSYLAWYQQKPGQAPRLLIYDASNRATGIPARFSGSGSGTDFTLTISSLEPEDFAVYYCQQRSNWPPWTFGQGTKVEIKR
notes: Fab made in E. coli; The constant parts (CH1 with His6 and Flag tags from plasmid A, kappa CL from plasmid C) are not added here; also called APFF & S30P
B9: Fab VH1-46_IGHD6-6*01_IGHJ1*01 S102A/S103P/S104F/H111F (APFF) & L6_IGKJ1*01 S31F (Fab, V domains shown)
VH: QVQLVQSGAEVKKPGASVKVSCKASGYTFTSYYMHWVRQAPGQGLEWMGIINPSGGSTSYAQKFQGRVTMTRDTSTSTVYMELSSLRSEDTAVYYCAREEYAPFSAEYFQFWGQGTLVTVSS
VL: EIVLTQSPATLSLSPGERATLSCRASQSVSFYLAWYQQKPGQAPRLLIYDASNRATGIPARFSGSGSGTDFTLTISSLEPEDFAVYYCQQRSNWPPWTFGQGTKVEIKR
notes: Fab made in E. coli; The constant parts (CH1 with His6 and Flag tags from plasmid A, kappa CL from plasmid C) are not added here; also called APFF & S31F
B10: Fab VH1-46_IGHD6-6*01_IGHJ1*01 S102A/S103P/S104F/H111F (APFF) & L6_IGKJ1*01 S30R (Fab, V domains shown)
VH: QVQLVQSGAEVKKPGASVKVSCKASGYTFTSYYMHWVRQAPGQGLEWMGIINPSGGSTSYAQKFQGRVTMTRDTSTSTVYMELSSLRSEDTAVYYCAREEYAPFSAEYFQFWGQGTLVTVSS
VL: EIVLTQSPATLSLSPGERATLSCRASQSVRSYLAWYQQKPGQAPRLLIYDASNRATGIPARFSGSGSGTDFTLTISSLEPEDFAVYYCQQRSNWPPWTFGQGTKVEIKR
notes: Fab made in E. coli; The constant parts (CH1 with His6 and Flag tags from plasmid A, kappa CL from plasmid C) are not added here; also called APFF & S30R

For the experiment, the target named is T1, Recombinant Human DLL4 (delta-like protein 4) (human, UniProt Q9NR61 27-524).
T1 construct: Bought recombinant human DLL4 (R&D Systems Cat#1506-D4/CF); also called rHuman DLL4
Briefly: ECL (MSD) multispot binding assay, antigen spotted on plate, Fab in solution.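 Also: purified Fab incubated 1 h at 20 °C, detected via TAG-labelled antibody electrochemiluminescence, antigen spot compared with the blank in the same well, ratio at least 4 counted as hit.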
Take B1: the “ECL signal” value came out at 179000 and the Signal/Blank was found to be 351.
The matching figures for B2: 178000 and 506.
In the case of B3, the Signal/Blank is 838.
The same measure, in the same setting: the value for B4 was 313.
In the case of B5, the “ECL signal” value came out at 136000 and the Signal/Blank was determined as 348.
As for B6, the Signal/Blank amounted to 156.
On the same count and under the same terms, in the case of B7 it was 882.
Take B8: the “ECL signal” value amounted to 1260 and the Signal/Blank turned out to be 4.2.
As for B9, the Signal/Blank turned out to be 459.
As to B10, the “ECL signal” value is 189000 and the Signal/Blank was found to be 682.
